Results reported in patent US20210047398A1, “ASPROSIN, A FAST-INDUCED GLUCOGENIC PROTEIN HORMONE” (Baylor College of Medicine, priority 2016, published 2021).

Key:
[1] = test system: human dermal fibroblasts; assay: Adipogenic differentiation of human dermal fibroblasts; type: cell-based
Method: Cell Culture—Human dermal fibroblasts isolated from NPS subjects or WT dermal fibroblasts from unaffected control subjects were subjected to adipogenic differentiation using standard protocols. […] Standard transfection methods with expression plasmids were used for in vitro transgenesis.
RNA and Protein Analysis—Standard RNA extraction procedures (RNeasy Mini Kit from Qiagen) were employed. Reverse transcription was carried out using the Superscript III kit (Invitrogen) using the manufacturer's protocol. For gene expression analysis, QPCR was performed using sequence-specific primers and probes from Roche (Universal Probe Library). TBP was used as an internal control for all gene-expression assays. Western blotting was performed using standard methods on plasma or cell culture media using a mouse monoclonal antibody directed against Asprosin, which was purchased from Abnova (Catalog #H00002200-M01). The mouse monoclonal antibody against fibrillin-1 was purchased from Abcam (Catalog #ab3090). […] At that time, media was concentrated using the Amicon Ultra-2 Centrifugal filter unit before proceeding with western blotting.

[2] = test system: hepatic glucose production; assay: Hyperinsulinemic-euglycemic clamp; type: in vivo, mice
Method: Animals. […] MgR heterozygous mice were obtained from Jackson labs, and bred to obtain male MgR homozygous mice and WT littermates. 5-week-old male Ob/Ob mice were obtained from Jackson labs. […] For diet induced obesity studies, mice were placed on the adjusted calories diet providing 60% of calories from fat by Harlan-Teklad for 12 weeks. […] Mice were exposed to 30 μg recombinant His-tagged asprosin or recombinant Green Fluorescent Protein (GFP) daily for 10 days via subcutaneous injection. Mice were sacrificed and plasma and various organs were isolated 10 days after virus or peptide injection. For single dose injections, the same protocol was followed as that for daily injections, followed by collection of plasma at the indicated times via tail bleeds for insulin and glucose measurement. Insulin and glucose tolerance tests (ITT and GTT) were performed using standard procedures. […] For immunologic sequestration experiments, mice were injected intra-peritoneally with a 500 μg dose in saline of a custom-built (Thermo Scientific Inc.) anti-asprosin mouse monoclonal antibody directed against amino acids 106-134 (human profibrillin amino acids 2837-2865) or an equivalent dose of isotype matched IgG (Southern Biotech, Inc.). […] The Baylor College of Medicine Institutional Animal Care and Utilization Committee approved all experiments.

[3] = Body composition, plasma parameters, histology, GTT and ITT in WT mice with increased circulating asprosin; type: in vivo
Method: Animals—10-week old male WT C57/Bl6 mice were used for all in vivo studies. […] Mice were injected with 2.6 micro molar recombinant His tagged Asprosin or recombinant GFP daily for 10 days via subcutaneous injection. Mice were sacrificed and plasma and various organs were isolated 10 days after viral infusion or peptide injection. The Baylor College of Medicine Institutional Animal Care and Utilization Committee approved all experiments.
Body composition and Serum analyses—Body composition was analyzed with the ECHO-MRI system (Echo medical systems, Texas). Mouse serum was prepared from blood obtained through cardiac puncture and analyzed with the COBAS Integra 400 plus analyzer (Roche). Plasma leptin, FFA, adiponectin and triglyceride levels were measured by using a Mouse Leptin ELISA Kit (Millipore), NEFA C Test Kit (Wako), Mouse Adiponectin ELISA Kit (Millipore) and Serum/plasma triglyceride detection kit (Sigma), respectively.
Histology—Mouse inguinal adipose tissue samples were fixed in 10% formaldehyde for H&E staining. Frozen livers were used for oil-red-O staining to evaluate hepatic triglyceride content.
Blood glucose levels were measured using a glucometer (Life Scan).

[4] = both experiments, 10 days, 4-hour fasted

B1: recombinant asprosin: 146 amino acid E. coli expressed fusion protein: 6 amino acid N-terminal His tag and 140 amino acid wild type asprosin (FBN1 2732-2871) (protein)
chain: HHHHHHSTNETDASNIEDQSETEANVSLASWDVEKTAIFAFNISHVSNKVRILELLPALTTLTNHNRYLIESGNEDGFFKINQKEGISYLHFTKKKPVAGTYSLQISSTPLYKKKELNQLEDKYDKDYLSGELGDNLKMKIQVLLH
[1]; polypeptide added to the media of mutant cells (10 ug, 7 days), FIG. 15
  NPS associated fat differentiation and inflammogenic defects: rescued
[1]; recombinant asprosin added to culture media (60 nanomolar), 7 days adipogenic induction, FIG. 4G
  adipogenic differentiation in WT cells: promoted adipogenic differentiation
[1]; recombinant asprosin added to culture media (60 nanomolar), 7 days, FIG. 4H
  adipogenic defect in NPS mutant cells: sufficient to rescue the adipogenic defect
[2]; elevated plasma asprosin, 10 days after FBN1 adenovirus (FIG. 21C)
  hepatic glucose production: increased hepatic glucose production
[2]; glucose disposal rate, FIG. 21D
  ability of peripheral organs to take up glucose in response to insulin: no impact
[3]; 60 minute mark, GFP mice had severe hypoglycemia
  blood glucose in insulin tolerance test: maintained their blood glucose levels
[3]; 10 days, FIGS. 5G-5J
  glucose and insulin tolerance tests: consistent with a diabetogenic effect
[3]; both experiments (FBN1 adenovirus; daily subcutaneous asprosin), 10 days
  fat cell volume, inguinal white fat microscopy: larger fat cell volume
[3]; [4]
  plasma leptin and adiponectin: higher levels
  plasma triglycerides and free fatty acids: lower levels
[3]; fasted mice, 10 days, FIGS. 11A-11D
  plasma glucose and insulin: hyperglycemia and hyperinsulinemia
[3]; ten days of daily subcutaneous injection, vs GFP injection
  fat mass (MRI): significant increase
[3]; ten days of daily subcutaneous injection, same in GFP injected mice
  lean mass (MRI): slight but significant decrease
